Data taken from patent US20200197495A1.

What was measured:
Test in all cases: cell-based or functional assay
[1] = molecular target: ReFacto (rec. FVIII from Pfizer) (UniProt P00451)
[2] = molecular target: CSL627 (recombinant B-Domain-deleted single chain FVIII, rVIII-SingleChain) (Homo sapiens (Human)) (UniProt P00451)
[3] = molecular target: Advate (rec. FVIII from Shire) (UniProt P00451)
[4] = molecular target: Helixate (rec. FVIII from CSL Behring) (UniProt P00451)

Row | Substance | IC50, inhibition of factor VIII uptake in MDDCs [1] | IC50, inhibition of factor VIII uptake in MDDCs [2] | IC50, inhibition of factor VIII uptake in MDDCs [3] | IC50, inhibition of factor VIII uptake in MDDCs [4] | reduction of CSL627 antigen presentation, HLA-DQB1 restricted peptide clusters [2] | reduction of CSL627 antigen presentation, peptide clusters (printed HLA-DQB1 a second time) [2] | reduction of CSL627 antigen presentation, unique HLA-DPB1 bound peptides [2] | reduction of CSL627 antigen presentation, unique HLA-DQB1 bound peptides [2]
1 | CSL650 (rec. VWF-albumin fusion from CSL Behring) | 0.778 µM | 0.75 µM | 0.769 µM | 0.552 µM | – | – | – | –
2 | plasma-derived von Willebrand Factor (pdVWF; BIOSTATE, human plasma derived VWF from CSL Behring) (from UniProt P04275 23-2813) | 0.963 µM | 0.744 µM | – | 0.823 µM | 10 fold | 3.5 fold | 14.2 fold | 21.7 fold
3 | CSL626 (truncated VWF (764-1242)-albumin fusion, dimer) | 1.57 µM | 1.72 µM | 2.23 µM | 1.69 µM | – | – | – | –
